Values of other authors, collected in publication PMC3090270 (Structure (London, England : 1993), 2010).

B1: Pap7: AKAP shown to bind RI subunits (protein, UniProt Q9H3P7 1-528, looked up)
Golgi resident protein GCP60: MAAVLNAERLEVSVDGLTLSPDPEERPGAEGAPLLPPPLPPPSPPGSGRGPGASGEQPEPGEAAAGGAAEEARRLEQRWGFGLEELYGLALRFFKEKDGKAFHPTYEEKLKLVALHKQVLMGPYNPDTCPEVGFFDVLGNDRRREWAALGNMSKEDAMVEFVKLLNRCCHLFSTYVASHKIEKEEQEKKRKEEEERRRREEEERERLQKEEEKRRREEEERLRREEEERRRIEEERLRLEQQKQQIMAALNSQTAVQFQQYAAQQYPGNYEQQQILIRQLQEQHYQQYMQQLYQVQLAQQQAALQKQQEVVVAGSSLPTSSKVNATVPSNMMSVNGQAKTHTDSSEKELEPEAAEEALENGPKESLPVIAAPSMWTRPQIKDFKEKIQQDADSVITVGRGEVVTVRVPTHEEGSYLFWEFATDNYDIGFGVYFEWTDSPNTAVSVHVSESSDDDEEEEENIGCEEKAKKNANKPLLDEIVPVYRRDCHEEVYAGSHQYPGRGVYLLKFDNSYSLWRSKSVYYRVYYTR
B2: D-AKAP1: dual-specific AKAP (protein, UniProt Q92667 30-903, looked up)
A-kinase anchor protein 1, …: KGHVSSHDEQQVEAGAVQLRADPAIKEPLPVEDVCPKVVSTPPSVTEPPEKELSTVSKLPAEPPALLQTHPPCRRSESSGILPNTTDMRLRPGTRRDDSTKLELALTGGEAKSIPLECPLSSPKGVLFSSKSAEVCKQDSPFSRVPRKVQPGYPVVPAEKRSSGERARETGGAEGTGDAVLGEKVLEEALLSREHVLELENSKGPSLASLEGEEDKGKSSSSQVVGPVQEEEYVAEKLPSRFIESAHTELAKDDAAPAPPVADAKAQDRGVEGELGNEESLDRNEEGLDRNEEGLDRNEESLDRNEEGLDRNEEIKRAAFQIISQVISEATEQVLATTVGKVAGRVCQASQLQGQKEESCVPVHQKTVLGPDTAEPATAEAAVAPPDAGLPLPGLPAEGSPPPKTYVSCLKSLLSSPTKDSKPNISAHHISLASCLALTTPSEELPDRAGILVEDATCVTCMSDSSQSVPLVASPGHCSDSFSTSGLEDSCTETSSSPRDKAITPPLPESTVPFSNGVLKGELSDLGAEDGWTMDAEADHSGGSDRNSMDSVDSCCSLKKTESFQNAQAGSNPKKVDLIIWEIEVPKHLVGRLIGKQGRYVSFLKQTSGAKIYISTLPYTQSVQICHIEGSQHHVDKALNLIGKKFKELNLTNIYAPPLPSLALPSLPMTSWLMLPDGITVEVIVVNQVNAGHLFVQQHTHPTFHALRSLDQQMYLCYSQPGIPTLPTPVEITVICAAPGADGAWWRAQVVASYEETNEVEIRYVDYGGYKRVKVDVLRQIRSDFVTLPFQGAEVLLDSVMPLSDDDQFSPEADAAMSEMTGNTALLAQVTSYSPTGLPLIQLWSVVGDEVVLINRSLVERGLAQWVDSYYTSL
B3: Merlin: AKAP shown to bind RI subunits (protein, UniProt P35240 1-595, looked up)
Merlin: MAGAIASRMSFSSLKRKQPKTFTVRIVTMDAEMEFNCEMKWKGKDLFDLVCRTLGLRETWFFGLQYTIKDTVAWLKMDKKVLDHDVSKEEPVTFHFLAKFYPENAEEELVQEITQHLFFLQVKKQILDEKIYCPPEASVLLASYAVQAKYGDYDPSVHKRGFLAQEELLPKRVINLYQMTPEMWEERITAWYAEHRGRARDEAEMEYLKIAQDLEMYGVNYFAIRNKKGTELLLGVDALGLHIYDPENRLTPKISFPWNEIRNISYSDKEFTIKPLDKKIDVFKFNSSKLRVNKLILQLCIGNHDLFMRRRKADSLEVQQMKAQAREEKARKQMERQRLAREKQMREEAERTRDELERRLLQMKEEATMANEALMRSEETADLLAEKAQITEEEAKLLAQKAAEAEQEMQRIKATAIRTEEEKRLMEQKVLEAEVLALKMAEESERRAKEADQLKQDLQEAREAERRAKQKLLEIATKPTYPPMNPIPAPLPPDIPSFNLIGDSLSFDFKDTDMKRLSMEIEKEKVEYMEKSKHLQEQLNELKTEIEALKLKERETALDILHNENSDRGGSSKHNTIKKLTLQSAKSRVAFFEEL

test system: RI subunits; settings: ref Huang et al., 1997b (D-AKAP1), 1997a (D-AKAP2), Reinton et al., 2000 (AKAP220), Gronholm et al., 2003 (Merlin), Li et al., 2001 (Pap7)

Molecule	binding to RI subunits (dual-specific)
B1	bind RI subunits
B2	bind RI subunits
B3	bind RI subunits
